According to publication PMC212687:

Target: RAG1;RAG2;HMG (HMG-1/2) (;;) (UniProt P15919+P21784)
Assay: EMSA
Conditions: Standard gel shift, conditions as in Fugmann et al. 2000b (not given in the material), three experiments

Work on “GATCTGGCCTGGTCTGCACAACCCTGTGACTCCCAACAAAAACCTGCACTCGAGCGGAG (double strand) [N (Jβ2.6 with consensus nonamer)]” yielded a binding signal (relative to Jβ2.2) (up to level of Jβ2.2) of 1.
For “GATCTGGCCTGGTCTGCACAGTGCAGATCTAGGAGACAAAAACCTGCACTCGAGCGGAG (double strand) [H-Sac-N]”, the binding signal (relative to H-Sc-N) (about 3-fold reduced vs H-Sc-N) was 0.33.
For “GATCTGGCCTGGTCTGCACAACCCTGTGACTCCCAAGAGAAACCTGCACTCGAGCGGAG (double strand) [Jβ2.6 12-RSS]”, the binding signal (relative to Jβ2.2) (about 2-fold reduced) was 0.5.
“GATCTGGCCTGGTTTGCACAGTCCTGGAAATGCTGGCACAAACCTGCACTCGAGCGGAG (double strand) [Jβ2.2 12-RSS]” was tested, and the binding signal (relative to Jβ2.2) was 1.
